B1: 1G17hz2 (antibody, V domains shown)
VH: QVQLVQSGAEVKKPGASVKVSCKASGYTFADYEMHWVRQAPGQGLEWIGIIDPETGRTSYAQKFQGRATLTADRSTSTAYMELSSLRSEDTAVYYCTRRAYWGGWGQGTLVTVSS
VL: DVVMTQSPLSLPVTLGQPASISCRSSQSLVHSSGNTYLNWYQQRPGQSPRLLIYKVSNRDSGVPDRFSGSGSGTDFTLKISRVEAEDVGVYFCSQSTHVPYTFGQGTKLEIK
notes: Humanized variant of 1G17
B2: 101E4 (antibody, V domains shown)
VH: EVQLVESGGGLVQPKGSLKLSCAASGFSFNPYAMNWVRQGPGKGLEWVARIRSKSNNYATYYADSVKDRFTISRDDSENILYLQMNNLKTEDTAMYYCVRDYYGGRSSIGMDYWGHGTSVTVSS
VL: DIVMTQAAPSVPVTPGESVSISCRSSKSLLHSNGNTYLYWFLQRPGQSPQLLIYRMSNLASGVPDRFSGSGSGTAFTLRISRVEAEDVGVYYCLQHLEYPFTFGGGTKLELK
notes: Mouse hybridoma monoclonal antibody (SJL mice); detected with anti-mouse IgG
B3: 3F6 (antibody, V domains shown)
VH: EVQFVESGGGLVQPKGSLKLSCAASGFSFNTYAMNWVRQAPGKGLEWVARIRTKSNNYATHYADSVKDRFIVSRDDSENILYLQMNNLKTEDTGMYYCVRGGNGIYGRNAMDNWGQGTSVTVSS
VL: DIVMTQAAPSVPVSPGESVSISCRSSKSLLHSSGNTYLYWFLQRPGQSPQLLIYRMSNLASGVPDRFSGSGSGTAFTLRISRVEAEDVGVYYCMQHLEYPFTFGGGTKLEIK
notes: Mouse hybridoma monoclonal antibody
B4: 3O20 (antibody, V domains shown)
VH: EVQLVESGGGLVQPKGSLKLSCATSGFSFNAYAMNWVRQAPGKGLEWVGRIRSKSNNYATYYADSVKGRFTISRDDSKTILYLQMNTLKTEDTAIYYCVRGGYHGNSAYFDVWGTGTSVTVSS
VL: DIVMTQAAPSVPVTPGESVSISCRSSKSLLHSNGNTYLYWFLQRPGQSPQLLIYRMSNLASGVPDRFSGSGSGTAFTLRISRVEAEDVGVYYCLQHLEYPFTFGSGTKLEIK
notes: as for B3
B5: 3F11 (antibody, V domains shown)
VH: EVQLVESGGGLVQPKGSLKLSCAASGFSFNTYAMNWVRQAPGKGLEWVARIRSKSNYYATYYADSVKDRFTISRDDSESMLYLQMNNLKTEDTAMYYCVRGRELGDYYAMDYWGQGTSVTVSS
VL: DIVMTQAAPSVPVTPGESVSISCRSSKSLLHSNGNTYLYWFLQRPGQSPQLLIYRMSNLASGVPNRFSGSGSGTAFTLRISRVEAEDVGVYYCMQHLEYPFTFGSGTKLEIK
notes: as for B3
B6: 118H1 (antibody, V domains shown)
VH: EVQLVESGGGLVQPKGSLKLSCAASGFSFNPYAMNWVRQAPGKGLEWIARIRSKSNNYAAYYADSVKDRFTISRDDSENILYLQMKNLITEDTAMYYCVRDYYGTRPSIGMDYWGRGTSVTVSS
VL: DIAMTQAAPSVFVTPGESVSISCRSSQSLLHSNGNTYLYWFLQRPGRSPQLLIYRMSNLASGVPDRFSGSGSGTGFTLRISRVEAEDVGVYYCMQHLEYPFTFGAGTKLELK
notes: Mouse hybridoma monoclonal antibody; also called 1181H1
B7: 4M13 (antibody, V domains shown)
VH: EVQLVESGGGLVQPKGSLKLSCAASGFSFNTYAMNWVRQAPGKGLEWVARMRSKSNNYATYYADSVKDRFTISRDDSESMLYLQMNNLKTEDTAMYYCVRGKDTSGSYAMDYWGQGTSVSVSS
VL: DIVMTQAAPSVPVTPGESVSISCRSSKSLLHSNGNTYLYWFLQRPGQSPHLLIYRMSNLASGVPDRFSGSGSGTAFTLRISKVETEDVGVYYCMQHLEYPFTFGSGTKLEIK
notes: as for B3
B8: 2L15 (antibody, V domains shown)
VH: EVQLVESGGGLVQPKGSLKLSCAASGFSFNTYAMNWVRQAPGKGLEWVARIRSKSNNYATYYADSVKDRFTISRADSESMLYLQMNNLKTEDTAMYYCVRGKDISVSYAMDYWGQGTSVTVSS
VL: DIVMTQAAPSVPVTPGESVSISCRSSKSLQHSNGNTYLYWFLQRPGQSPQLLIYRMSNLASGVPDRFSGSGSGTAFTLRISRVETEDVGVYYCMQHLEYPFTFGSGTKLEIK
notes: as for B3
B9: 103G4 (antibody, V domains shown)
VH: EVQLVESGGGLVRPKGSLKLSCAASGFSFNPYALNWVRQAPGKGLEWVARIRSKSNNYATYYADSVKDRFTISRDDSENILYLQMNNLKTEDTAMYYCVKDYYGTRPSIGMDYWGQGTSVTVSS
VL: DIVMTQAAPSVPVTPGESVSISCRSSRSLLHSNGNTYLYWFLQRPGQSPHLLIYRMSNLASGVPDRFSGSGSGTAFTLRISRVEAEDVGVYYCMQHLEYPFTFGAGTKLELK
notes: as for B3
B10: 4G19 (antibody, V domains shown)
VH: EVQFVESGGGLVQPKGSLKLSCAASGFSFNTYAMNWVRQAPGKGLEWVARIRTKSNNYATHYADSVTDRFIVSRDDSESMTYLQMNNLKTEDTGMYYCVRGGNGIYGRNTMDNWGQGTSVTVSS
VL: DIVMTQTAPSVPVSPGESVSISCRSSKSLLHSSGNTYLYWFLQRPGQSPQLLIYRMSNLASGVPDRFSGSGSGTAFTLRISRVEAEDVGVYYCMQHLEYPFTFGGGTKLEIQ
notes: as for B3
B11: 4D24 (antibody, V domains shown)
VH: EVQLVESGGGLVQPKGSLKLSCAASGFSFNPYAMNWVRQSPGKGLEWVARIRSKSNNYATYYADSVKDRFTISRDDSESMLYLQMNNLKTEDTAMYYCVRQGWVKRYFDVWGTGTTVTVSS
VL: GNVLTQSPAIMSASPGEKVTMTCSASSSGTYMHWYQQKSTTSPKLWIYDTSKLASGVPGRFSGSGSGNSYSLTISSMEAEDIATYYCFQGSGYPLTFGSGTKLEIK
notes: as for B3
B12: 1G17 (antibody, V domains shown)
VH: QVQLQQSGAELVRPGASVTLSCKASGYTFADYEMHWVKQTPVLGLEWIGAIDPETGRTAYNQKFKFKATLTADRSSSTAYMELRSLTSEDSAVYYCTRRAYWGGWGQGTTLTVSS
VL: DVVMTQTPLSLPVSLGDQASISCRSSQSLVHSSGNTYLHWYLQKPGQSPKLLIYKVSNRFSGVPDRFSGSGSGTDFTLKISRVEAEDLGVYFCSQSTHVPYTFGGGTKLEIK
notes: as for B3
B13: 84B4 (antibody, V domains shown)
VH: EVQLQQSGPVLVKPGASVKMSCKASGFTITDYYFNWVKQSHGKSLEWIGIINPYNGVARYKQKFKGKATLTVDKSSSTVYLEFSGLTSEDSAVYYCVRFVYGTTYDYAMDYWGQGTSVTVSS
VL: DVLMTQTPLSLPVSLGDQASISCRSSQSIVHSNGNTYLEWYVQKPGQSPKLLIYKVSNRFSGVPDRFSGSGSGTDFTLKISRVEAEDLGVYYCFQGSHVPPTFGGGTKLEIK
notes: as for B3
B14: 2P15 (antibody, V domains shown)
VH: EVQLVESGGGLVQPKGSLKLSCAASGFSFNAYAMNWVRQAPGKGLEWVARMRSKSNYYATYYADSVKDRFTISRDDSESMLYLQMNNLKTEDTAMYYCVRQTYGSKDYAMDYWGQGTSVTVSS
VL: DVVMTQTPLSLPVSLGDQASISCRSSQSLVHSNGNTYFHWYLQKPGQSPKLLIYKVSNRFSGVPDRFSGSGSGTDFTLKISRVEAEDLGVYFCSQSTHVPFTFGSGTKLEIK
notes: as for B3
B15: 3C11 (antibody, V domains shown)
VH: EFQLQQSGPELVKPGASVKISCKTSGYSFTDYNINWVKQSNGKSLEWIGLINPNHGTTKSNQKFKGKATLTVDQSSSTAYMQLSSLTSEDSAVYYCARHDYDGAYWGQGTLVTVSA
VL: DVVMTQTPLSLPVSLGDQASISCRSSQSLIHSNGNTYLHWYLQKPGQSPKLLIYKISNRFSGVPDRFSGSGSGTDFTLKISRVEAEDLGVYFCSQSTRAPWTFGGGTKLEIK
notes: as for B3
B16: 172E7 (antibody, V domains shown)
VH: EVQLQQSGPVLVKPGASVKMSCKASGYTFTDNYMNWMKQSHGKTLEWIGVINPYNGVTRYNQKFRDKATLTVDKSSSTAYMDLNSLTSEDSAVYYCSNSLSWGPGTSLTVSS
VL: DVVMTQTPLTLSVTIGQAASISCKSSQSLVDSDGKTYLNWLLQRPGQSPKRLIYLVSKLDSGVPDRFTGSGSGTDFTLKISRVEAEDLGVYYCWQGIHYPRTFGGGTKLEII
notes: as for B3
B17: 170G6 (antibody, V domains shown)
VH: EVQLQQSGPVLVKPGASVKMSCKASGYTFTDNYMNWVKQSHGKSLEWIGVINPYNGVTRYNQKFRGKATLTADKSSSTAFMDLNSLTSEDSAVYYCSNSLSWGPGTTLTVSS
VL: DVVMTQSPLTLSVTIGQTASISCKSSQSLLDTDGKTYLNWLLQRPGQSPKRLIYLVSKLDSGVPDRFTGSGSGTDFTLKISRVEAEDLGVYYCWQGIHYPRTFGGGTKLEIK
notes: as for B3
B18: 3F11hz2 (antibody, V domains shown)
VH: EVQLVESGGGLVQPGGSLKLSCAASGFSFNTYAMNWVRQASGKGLEWVGRIRSKSNYYATYYAASVKGRFTISRDDSKNTAYLQMNSLKTEDTAVYYCVRGRELGDYYAMDYWGQGTLVTVSS
VL: DIVMTQSPLSLPVTPGEPASISCRSSKSLLHSNGNTYLDWFLQKPGQSPQLLIYRMSNRASGVPDRFSGSGSGTDFTLKISRVEAEDVGVYYCMQHLEYPFTFGQGTKLEIK
notes: Humanized variant of 3F11
B19: 3O20hz3 (antibody, V domains shown)
VH: EVQLVESGGGLVQPGGSLKLSCATSGFSFNAYAMHWVRQASGKGLEWVGRIRSKSNNYATAYAASVKGRFTISRDDSKTTLYLQMNSLKTEDTAVYYCVRGGYHGNSAYFDVWGQGTLVTVSS
VL: DIVMTQSPLSLPVTPGEPASISCRSSKSLLHSQGNTYLDWFLQKPGQSPQLLIYRMSNRASGVPDRFSGSGSGTDFTLKISRVEAEDVGVYYCLQHLEYPFTFGQGTKLEIK
notes: Humanized variant of 3O20
B20: 3O20hz1 (antibody, V domains shown)
VH: EVQLVESGGGLVQPGGSLKLSCAASGFSFNAYAMHWVRQASGKGLEWVGRIRSKSNNYATAYAASVKGRFTISRDDSKNTAYLQMNSLKTEDTAVYYCVRGGYHGNSAYFDVWGQGTLVTVSS
VL: DIVMTQSPLSLPVTPGEPASISCRSSKSLLHSNGNTYLDWYLQKPGQSPQLLIYRMSNRASGVPDRFSGSGSGTDFTLKISRVEAEDVGVYYCLQHLEYPFTFGQGTKLEIK
notes: Humanized variant of 3O20

Key:
human CCR8 [1] = target: T1, human CCR8 (human, UniProt P51685 1-355); assay: FACS on human CCR8-expressing 293F cells
T1 construct: whole, on cells; also called hCCR8; C-C Motif Chemokine Receptor 8
T1 sequence (P51685 whole entry): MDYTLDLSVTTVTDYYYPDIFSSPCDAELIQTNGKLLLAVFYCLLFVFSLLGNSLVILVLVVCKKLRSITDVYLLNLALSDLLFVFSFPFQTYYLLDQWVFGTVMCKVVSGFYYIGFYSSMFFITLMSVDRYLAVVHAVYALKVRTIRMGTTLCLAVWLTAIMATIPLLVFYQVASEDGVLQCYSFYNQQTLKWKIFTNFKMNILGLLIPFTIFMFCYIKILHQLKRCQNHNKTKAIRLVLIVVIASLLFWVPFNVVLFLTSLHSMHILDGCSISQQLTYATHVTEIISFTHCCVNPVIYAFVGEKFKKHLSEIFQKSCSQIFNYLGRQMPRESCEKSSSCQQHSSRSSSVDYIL

human CCR8 [2] = target: T1, human CCR8; assay: cell-based or functional assay
human CCR8 [3] = target: T1, human CCR8; assay: FACS on 293F-CCR8 cells
Procedure: The affinity of anti-CCR8 antibodies was evaluated by FACS. […] Affinity analyses were generally carried out as follows. […] The test antibodies were diluted with PBS/0.5 BSA (1:3 series dilution from 225 μg/mL to 0.00381 μg/mL). The transfected cells along with parent non-transfected cells were distributed into 96-well round-bottom polystyrene plates and incubated with the diluted antibodies on ice for 20-30 minutes. Next, the samples were washed with PBS/0.5 BSA and the cells were centrifuged. The pelleted cell samples were incubated with the second antibody of anti-mouse IgG-FITC-at 1:300 dilution in 100 μL PBS/0.5% BSA on ice for 30 minutes, and then washed with PBS/0.5% BSA, followed by pelleting the cells. The cell pellets were re-suspended in PBS/0.5% BSA for reading, and samples were analyzed using CYTOFLEX (Beckman).

| Binder | EC50 (human CCR8 [1]) [nM] | Tango IC50 (human CCR8 [2]) [nM] | EC50 (human CCR8 [3]) [nM] |
| --- | --- | --- | --- |
| B1 | 333 | – | – |
| B2 | – | 0.27 | 0.409 |
| B3 | – | 0.51 | 2.29 |
| B4 | – | 0.45 | 1.29 |
| B5 | – | 0.27 | 0.957 |
| B6 | – | 1.43 | 0.466 |
| B7 | – | 0.47 | 0.775 |
| B8 | – | 1.23 | 0.826 |
| B9 | – | 0.83 | 20.6 |
| B10 | – | 2.61 | 4.49 |
| B11 | – | 0.67 | 0.888 |
| B12 | – | 1.82 | 2.94 |
| B13 | – | 1.86 | 0.195 |
| B14 | – | 1.87 | 0.305 |
| B15 | – | 4.08 | 4.25 |
| B16 | – | 2.01 | 6.99 |
| B17 | – | 0.33 | 0.302 |
| B18 | 98.5 | – | – |
| B19 | 241 | – | – |
| B20 | 508 | – | – |
